Assay results as given in publication doi:10.1101/607101 (bioRxiv, 2019).

Biological target: the molecule itself
Assay: crystal structure

B1: Kitasatospora setae enoyl-CoA carboxylase/reductase (ECR), wild type (enzyme)
chain: MQEILDAILSGDAASADYAALALPESYRAVTLHKGEERMFDGLASRDKDPRKSLHLDDVPLPELGPGEALVAVMASSVNYNTVWSSIFEPVSTFGFLERYGRLSPLTARHDLPYHVLGSDLAGVVLRTGAGVNAWKPGDEVVAHCLSVELESPDGHNDTMMDPEQRIWGFETNFGGLAQLALVKTNQLLPKPKHLTWEEAASPGLVNSTAYRQLVSRNGAGLKQGDNVLIWGASGGLGSYATQYALAGGATPICVVSSPRKADICRAMGAEAIIDRSAEGYRFWKDEHHQDPREWKRLGGKIREFTGGEDVDIVFEHPGRETFGASVYVTRKGGTIVTCASTSGYMHQYDNRYLWMSLKRIVGSHFANYREAFEANRLVAKGKIHPTLSKVYALEETGQAALDVHHNKHQGKVGVLCLAPREGLGVTDPELRSKHLTKINAFRNV
- stoichiometry N: 4
